Measurements reported in the supplement of paper PMC10567573.

B1: NCF4 (parent)
chain: FGPDSKSSALACTLPTLPAKVYVG
B2: NEK8 (parent)
chain: VVGTPCYISPELCEGKPYNQKSDI

Variants of: B1
Test: protein stability index of a GFP-peptide fusion (GPS, HEK-293T) (PSI 1-6); higher = more stable
Settings: c terminus: a fixed tail appended
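Note: lentivirally expressed fusions sorted by FACS into six bins by GFP to DsRed ratio, PSI derived from sequencing read proportions per bin multiplied by bin number.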

Protein stability index of substitutions, site by site:
K6: V 2.07; N 2.8; S 2.41; Q 2.45; L 1.63; A 1.95; W 3.06; E 2.54; I 1.95; R 1.76; P 2.33; F 1.53; M 2.89; T 2.78; D 3.17; Y 1.43; G 2.48; C 2.02; H 2.29
F1: K 3.17; H 3.84; M 2.68; N 3.69; V 2.92; P 3.32; S 3.64; A 3.11; L 2.99; W 2.63; I 2.64; Y 2.7; R 2.54; T 3.47; G 3.58; C 2.67; Q 3.02; D 3.56; E 4.28
D4: P 2.23; H 1.18; L 2.15; G 2.1; W 1.18; Y 1.8; V 1.75; E 2.05; R 2.1; S 2.04; A 1.82; C 2.11; Q 2.26; T 2.14; N 1.84; I 2.15; K 2.48; M 2.19; F 1.58
S7: M 2.25; A 1.9; I 1.56; K 2.35; R 2.35; N 2.23; E 2.72; F 2.9; V 1.73; H 1.57; L 2.07; C 1.69; G 2.37; Q 3.06; P 1.97; D 2.9; T 2.37
S5: V 2.46; C 1.8; T 2.32; M 1.89; H 2.36; I 2.41; N 2.65; K 2.28; D 3.16; Q 3.47; L 2.12; E 3.13; A 2.34; R 2.2; Y 1.51; P 2.75
P3: S 2.35; E 3.02; Y 1.73; M 2.01; F 1.72; I 2.13; N 2.21; W 1.46; R 2.35; D 2.19; Q 3.09; C 2.04; K 2.56; T 2.25; G 2.07; L 2.17; H 2.46; A 2.45; V 1.86
G2: W 1.65; D 3.1; Q 1.49; L 2.06; M 1.84; K 3.02; P 2.59; S 2.34; F 3.06; H 1.61; V 3.38; A 2.57; E 3.43; R 2.6; C 1.12; T 2.06; Y 2.22; I 1.96; N 1.77

Variants of: B2
Test: as above
Settings: c terminus: a fixed tail appended

Protein stability index: each site, then its substitutions
E14: M 2.28; Q 2.37; Y 2.25; H 2.23; N 2.52; S 2.38; T 2.73; G 2.52; W 2.5; V 2.23; R 2.51; F 1.82; L 2.67; I 2.2; K 2.6; P 2.79
K21: S 3.01; A 2.99; F 1.75; L 2.41; D 2.93; P 2.45; R 2.26; Q 2.92; N 2.85; H 2.86; T 2.48; Y 2.2; M 2.07; I 1.97; G 2.79; C 2.51; V 1.99; E 2.48; W 2.65
K16: D 3.14; I 2.02; R 2.62; F 2.11; G 2.55; H 2.15; M 2.81; C 2.43; L 2.07; N 3.13; E 3.05; W 1.55; T 2.54; S 2.17; Y 1.96; A 2.16; Q 2.79; V 2.78; P 2.15
P17: H 2.9; F 1.99; A 2.91; K 2.99; M 2.35; W 1.65; E 3.09; L 2.23; C 2.22; T 3; N 3.12; S 3.02; V 2.55; Y 2.27; Q 2.77; D 3.05; R 3.38; I 2.39; G 2.76
D23: Y 2.44; G 1.82; M 2.18; C 2.93; Q 2.36; H 2.94; N 2.56; L 2.15; K 3.02; I 2.19; V 2.02; W 1.25; T 2.63; P 2.35; S 2.17; A 2.74; F 2.04; R 2.29; E 2.47
I24: P 3.18; E 2.94; R 3.51; D 4.21; L 2.79; V 3.27; Q 3.33; S 3.56; C 2.91; F 2.51; N 3.35; M 2.95; H 3.18; T 3.97; W 2.63; A 3.45; Y 3.08; G 3.4; K 3.63
S22: M 2.51; N 2.58; C 2.52; L 2.63; K 3.12; W 1.26; F 2.5; T 2.95; Y 2.37; I 2.5; G 2.67; V 2.36; D 3.05; Q 2.85; R 3.01; P 3.08; H 2.77; E 3.31; A 2.48
Y18: C 3.05; E 3.72; R 3.58; T 3.68; N 3.63; L 2.8; D 3.53; S 3.86; W 2.6; A 3.6; I 2.79; K 3.67; V 3.67; G 3.45; Q 3.5; F 2.67; H 2.7; P 3.4; M 3.15
Q20: H 2.59; C 2.57; D 2.54; N 3.3; I 2.24; R 2.84; P 2.31; L 2.55; V 2.79; M 2.22; K 3.15; F 1.85; S 2.49; G 2.71; W 1.89; E 2.63; A 2.44; Y 2.14; T 2.48
N19: F 2.14; H 2.48; I 2.38; M 2.88; A 2.79; E 2.94; Y 2.39; G 2.48; T 2.98; R 2.45; D 3.22; C 2.46; P 2.82; Q 3.19; K 2.98; V 2.73; L 2.21; W 2.02; S 3.1
G15: E 2.8; D 2.93; M 2.39; Y 2.34; L 2.19; C 2.47; K 3.45; Q 2.97; N 2.68; R 2.85; S 2.37; H 2.84; V 3.14; A 2.85; W 1.64; P 2.56; T 2.87; F 2.15; I 2.41
